experiment: soluble on expression in E. coli; label from the status in PepcDB or PDB records

Sequence	soluble on expression in E. coli
MRFITIAAVLLVSSLLIVEASSIRDKRQSCGCASQVQPSCSCQQATQPQQYSCSCQNTAPVQTSCSCAQPVQQVTYQVQTSQCAPACQQSCQNQCQFAPSMNECQSSCQQTCQTSSCYTQIAAPAPVQCQPSCMPACEQSCVAPAPVTVQCVPQCQQKCTQQCVQAQPIQQCQPQCQQQCVQQCAPTVAPQVINVNLGISAQCAPQCQQQCQQQCLLQQVPVQQCYQECTQPCQTTCQQAAPQCVQQCAPQCQQPSAPQCQQCQNTCQQYAPVCQQQCAPQCTLPSAPACQQCQTSCQQTQQCQQQCIPQCQQPAAPQCQQCQSACQSPVVAPQIVTVILEPSVSQSAQCVPQCQQSCQQQCIQQQQPMQQCAPACTQSCYQSCSTAQLVQMPCLTQSVNSCSCQQNYSPCGNGQCCKRM	not soluble
MSLSSEPVVVAILPHAAELAEKIAAKIGGRVDLRGSDFTDTGAHLRSLFLAGHPIVGIGAAGIYIRSLASVLGDKNSEPPVLAVSEDARNIVPLLGGHHGANGLAKEIADYLETAAAVTTSGDVAMGVALDEPPQGWKLENPEDAKGAMAALLGGAKAQQSGNGDWLTPLSSRVEFSETDADAPVVLSVEGAAPLIYRRQSFALGLGCARGCDPDELIALVAKTLADNGRSIHEVAMVGSIDIKSDEAAIHAVARHLGVPARFFDADELNSVTPRLANPSEVVRAEVGVAGVSEGAALVMAGVSGALVIEKTKTANATCALARISQDGSEGHHHHHH	soluble
MERKINRREKEKEYEGKHNSLEDTDQGKNCKSTLMTLNVGGYLYITQKQTLTKYPDTFLEGIVNGKILCPFDADGHYFIDRDGLLFRHVLNFLRNGELLLPEGFRENQLLAQEAEFFQLKGLAEEVKSRWEKEQLTPRETTFLEITDNHDRSQGLRIFCNAPDFISKIKSRIVLVSKSRLDGFPEEFSISSNIIRFKYFIKSENGTRLVLKEDNTFVCTLETLKFEAIMMALKCGFRLLTSLDCSKGSIVHSDALHFIK	soluble
MNQVAPFYADHVGSILRTKGIKDAREKFQSGEITALELRKIENTEIKYIVEKQKEVGLKSITDGEFRRAWWHFDFLENLDGVEGYDAAGGIQFSKVQTKSHSVKITGPIDFTTHPFIEDFIFLKEAVGDNHVAKQTIPSPAMLHYRGDIEYQPYLDDAEKFANDLATAYQKAIQAFYDAGCRYLQLDDTSWSYLCSDEQREVVRQRGFDPETLQETYKNLINEAIKHKPADMVITMHICRGNFRSTWIAEGGYGPVAETLFGKLNIDGFFLEYDNERSGDFAPLKYVTRPDLKIVLGLITSKTGELEDEAAIKARIEEASEIVPLSQLRLSPQCGFASTEEGNILTEEEQWDKLRYVVRLANDIWGELEHHHHHH	soluble
MKIKILVDEYNTQKEQAKKVRKATSLYFRIHPSIMASKTLRVLFLGPKGTYSHQAALQQFQSTSDVEYLPAASIPQCFNQLENDTSIDYSVVPLENSTNGQVVFSYDLLRDRMIKKALSLPAPADTNRITPDIEVIAEQYVPITHCLISPIQLPNGIASLGNFEEVIIHSHPQVWGQVECYLRSMAEKFPQVTFIRLDCSSTSESVNQCIRSSTADCDNILHLAIASETAAQLHKAYIIEHSINDKLGNTTRFLVLKRRENAGDNEVEDTGLLRVNLLTFTTRQDDPGSLVDVLNILKIHSLNMCSINSRPFHLDEHDRNWRYLFFIEYYTEKNTPKNKEKFYEDISDKSKQWCLWGTFPRNERYYHK	not soluble
MKLACKIYNTLRWADIYFYQRDGKGLTQTELRQLALDLRKQDDEYKQLYSQVVQQIADRYYEARQRFFEGLARFPKEKKPHKYYSLVYPQYGWKILQVREIRKGSKKNKKRLITLKLSNLGTFKVIIHRDFPLDKVKRVVVKLTRSERIYITFVVEDYEFPKLPNTGKVVAIDVGIEKLIVTSDGEYFPNLRPYEKALWKVKHLHRELSRKKFLSNNWFKAKVKLARAYEHLKNLRTDLYMKLGKWFAEHYDVVVMEDIHVKQLIGKSLRSLRRRLSDVAFSELRDLIKYQLEKYGKKLILVNPAYTSKTCARCGYVKEDLSLSDRVFVCSNCGWIADRDYNASLNILRGSGSERPLVWSSALYQYQHFGTGMAELLEHHHHHH	soluble
MSLATTLVLGGGYAGMRAVKFLQKSLPTEDEIILVDQTPTHTEKTNLHEVAAGTIAPDRITYQIPDIIGKRVQFVQATVKNVDIEQKQVTFEDHPEMTYDYLVLALGFQSETFGVAGADENALPMDDLATSQAVYEHLEERFKAYRTSKDKNDLKIAVCGAGFTGIELLGELTQTLPRLQAKYQTPAAKLVCLERMPSILPMFTQELRDYALKFMEKNNVEMRLGAVIEAIKPGAVVYSDADKNEHEFTANTIIWTVGVSGSHVIADSGFDQRRNRVVVKPDLSLEGHPEVFIVGDVAAVMDPESNRPYPTTAQIALAAGEQAAKNIGALRHNQATATFHYESSGTVASLSDRDGIGEIFSSNKPVHGYAASALKKIITDRSLLESAHLGTVFSKGRFDLYHEGHHHHHH	soluble
SNAMDFHIRKATNSDAEAIQHVATTSWHHTYQDLIPSDVQDDFLKRFYNVETLHNRISATPFAVLEQADKVIGFANFIELEKGKSELAAFYLLPEVTQRGLGTELLEVGMTLFHVPLPMFVNVEKGNETAIHFYKAKGFVQVEEFTEDFYGYPLETIRFNLNH	soluble
MGSDKIHHHHHHMSQHRDAAFLTAKSWQDLPASVPFRLCCIERIDETHDVVTFRFEAAGEPVRFSYKPGQFITLLLEIGGEPHSRAYTLSSSPSRPYSISITVKRVEGGKVSNYLIDNLRPGHALDAMGPSGSFNLVDIPADRYLFLSAGCGITPMFSMSRWLTDTRVGADITFVHSARSVDDLIFAPKLESMANNHSGFRLGYVIEQGNCPDWPYAPVLPGRLTLSGLDSLVSDWRERTLYVCGPEAYMAAVEAMVRDAGFAMSRFHKESFGKPGAPVKSSGQGFMLKVGDKLHPLGESGLLLEGIEALKLPIIAACRSGVCGACKCQVLEGDVERLSEMTLTEEDKANGMVLACSARALSNISLKL	not soluble
SLEQPGFKLRAVTIHFEASADVDSIEDAVFKAKEAIDRLTAEKGVEVWSLRAVLTPGESVADSLGRVAELEPLVEEEGVFINLGLHNASADDWEAVSGIVESGFFLSFALENGTWEEARSYSKLLHRLADKSPDLAVHIGFNPLGTHILTPYFPLATSPGEQRTVTVALLYPRYLLESFRKGGLQAVIDSMVDAAQLSGEYGKAVAKDVEGSFAGVDLSISPWMEESSLALVEEVGGVRLPEPGFAYGLRLVNEAIAAAASKTGYAVGFNEVQLPVAEDSKLKVRVAELETSARDLLRLSGVCLAGLDMAVIPASLDGVAGLLLEARAYSRAKGSIVGVRLIPLDGVEPGDEVFLKRFGEVPVIPI	soluble
MGHHHHHHSHANCAENEEGCTPLHLACRKGDGEILVELVQYCHTQMDVTDYKGETVFHYAVQGDNSQVLQLLGRNAVAGLNQVNNQGLTPLHLACQLGKQEMVRVLLLCNARCNIMGPNGYPIHSAMKFSQKGCAEMIISMDSSQIHSKDPRYGASPLHWAKNAEMARMLLKRGCNVNSTSSAGNTALHVAVMRNRFDCAIVLLTHGANADARGEHGNTPLHLAMSKDNVEMIKALIVFGAEVDTPNDFGETPTFLASKIGRLVTRKAILTLLRTVGAEYCFPPIHGVPAEQGSAA	not soluble
MANPIKIGIGGPVGAGKTQLIEKVVKRLSKEMSIGVITNDIYTKEDEKILVNSGVLPESRIIGVETGGCPHTAIREDASMNFAAIDELLERHDDIELIFIESGGDNLAATFSPELVDFSIYIIDVAQGEKIPRKGGQGMIKSDFFVINKTDLAPYVGASLEQMAEDTKVFRGKRPFTFTNLKTDEGLDEVIDWIERDTLLKGLS	not soluble
GIDTVGGKMTVCQLYDKKNSQRKNIKRATEKGRQYLMNALKNDPLGMRAIDTVKQSDAKEWAIRMSEKGYAYKTIDNYKRSLKASFYMAIQDDCIRKNPFDFKLSDVLEDDTEQKVILTPEQEERLLAFMEKDKIYSKYYDEVVLLLETGLRISEFCGLTMHIDMQNRILNIDHQLLKDSEIGYYIETPKTKNGKRELPLTERAYQAIQRILKSRGKAQPLIVGGYSNFLFLNREGLPKVAGNYEGMVRGLIKKYNKYHTDKLPNITPHSFRHTYCTNMANRGMNPNTLQYLMGHANITMTLGYYAHGTFQSAKAELERLAC	not soluble
MSLEASVEGLDGPAATNVVNFLEPLDTRNISEARLDSDIRERTQRALRAFGYYSPQIETSYPDGMFAGDVVIAIDPGPRTHITQLDLGVDGAAGDDPAFRKALASIPLEEGDPLRHDRYDSAKTRLSTLALERGYFDAGFAQQRMEVRPWEASARLFLRMRSGPRYRFGDIRFAGSQIEEARLRRMLPFTKGDPYLAGQLAEYNQRLGQTNWFRGIAVRPRIGDERNVTRGGQWWQEATGRTPPLSSGAGLAAVRRLHGLQSTDVPVDVDLVPADRHKFETGIGYATDVGPRVQFSWEMPWLNDRGHSLSNSLYLSGPEQRFDGEYVMPLANPLRDSYRLSYGLRSLDNEDTQSLESSVELARRWEFDNDWVQELYFRTTYEDFTQADQDEQVLLLYPGISWTRTRTRQPNFPRWGDRQRLALEVSDPAWGSDARFLRARFDSQWIRTLGSDNRFVGRIGGGATATDTFDKIPPSLRFFAGGDQSVRGYSYESLSPENDDGELLGGQHMLTASAEYQRRVTGNWWGATFVDTGNAFNAWWPEELKTGAGVGVRWISPVGPVRFDIAHPFDNEEDAWRLHFAIGPEEGHHHHHH	not soluble
MPKFVVIELNDDAATIDLLSYCVKKNFERVSLLTRLEDHPYLRDDQDVVQDDTQSQGTDGMLLQLNDEERQRLMKMISTPGPQTLSMERIQMAPGQGQHILQQHQIPSTSSYTNNSFIYIKSDPQYKDEPQQQSNQFDATVNSVAHGQAGLSTLEMFACNGSPNGGDVLRRKTPSRKAEDSIKATCKVCGHDVMYSPQRTWNLMRHVWIMHQSSKPNQCSICGYSHIKPYVRKHIESQHKHDSNATIIDLKSPELEAEWSQLLDQCFGVTYRKWKHHKEDTQHTGGLLFDDDELRG	soluble
MTSDTFPQLPLSYWIESTQFPTFPRLSENIKTKVAIIGAGITGITTAYLLAKEGIDVVLIDSGRILNGTTGHTTAKVTAQHDLIYDELINHFGVEKARLYYESNNQALQFINKTVQTYKIDCNFSNEDSYLYTTTDNGLRNLSKEYEAYQKLNIPCDYVQSLSIPIPVQSALVMKNQAQFHPLLYLKTLLEKFVEMGGKVYEQTTAMDVEKGDYSQIITKEGHHITCEYVVSCSHFPFYDANSFFFTRMYAERSYALAIKAKTEYPGGMYLSIDDPKRSLRYITNNGEKLILIGGESHKTGQGINTMLHYEALYSFAEATFGIDEVSYRWSAQDLITLDKLPYIGHINERNPNIFVATGYRKWGMTTGTAAAHLLKDSILKVHSPYKELYAPSRFHANPDIKTFLSQNIDVAKHLIAGKIETALRKPEDLEVGEGSVVHVNGKRAGAYKDKEGKLHIVDTTCTHLGCEVEWNNGDCTWDCPCHGSRFSIEGDVLEGPADQPLKRVDNELEHHHHHH	soluble
MGLTIPVILNSVNNLSDARYAAGMGVEFMGFEVEASGERYVSPDLYKAITAWLSGVQTVTELAVLTPAVLTTIQEQYQPDFIQFESVEGISQSDLADLPCIQKIIISTGQEAKIFNNLAQYIFSEANYVLLELSDWTNWTEFQQLITEINTAYPVIWSLPIEKEDAALIQEIELKGISLKGGDEQRPGWKDLDQLIDILEALEEN	not soluble

Reference: the DeepSol protein solubility set
